B1: target 1 insC 3' of 15,insA 3' of 5 (mixed)
RNA 1: CACCCGUGCAAAAAUGCAGGGGUCUAAAACUGAGCGGAUAACCUCUCUAUGG
RNA 2: GGGAAUGGAUCCACAUCUACGAAUUCGUACCAUAGAGCAGGUUAUCCGACUCACCGAGAUCGGAAGAGCACACGU
B2: target 1 G12U,G17C (mixed)
RNA 1: CACCCGUGCAAAAAUGCAGGGGUCUAAAACUGAGCGGAUAACCUCUCUAUGG
RNA 2: GGGAAUGGAUCCACAUCUACGAAUUCGUACCAUACAGAGUUUAUCCGCUCACCGAGAUCGGAAGAGCACACGU
B3: target 1 A1C,U10C (mixed)
RNA 1: CACCCGUGCAAAAAUGCAGGGGUCUAAAACUGAGCGGAUAACCUCUCUAUGG
RNA 2: GGGAAUGGAUCCACAUCUACGAAUUCGUACCAUAGAGAGGUCAUCCGCUCCCCGAGAUCGGAAGAGCACACGU
B4: target 1 del13,del22 (mixed)
RNA 1: CACCCGUGCAAAAAUGCAGGGGUCUAAAACUGAGCGGAUAACCUCUCUAUGG
RNA 2: GGGAAUGGAUCCACAUCUACGAAUUCGUACAUAGAGAGUUAUCCGCUCACCGAGAUCGGAAGAGCACACGU
B5: target 1 insG 3' of 6,insU 3' of 6 (mixed)
RNA 1: CACCCGUGCAAAAAUGCAGGGGUCUAAAACUGAGCGGAUAACCUCUCUAUGG
RNA 2: GGGAAUGGAUCCACAUCUACGAAUUCGUACCAUAGAGAGGUUAUCCGUGCUCACCGAGAUCGGAAGAGCACACGU
B6: target 1 insA 3' of 22,insU 3' of 20 (mixed)
RNA 1: CACCCGUGCAAAAAUGCAGGGGUCUAAAACUGAGCGGAUAACCUCUCUAUGG
RNA 2: GGGAAUGGAUCCACAUCUACGAAUUCGUACACAUUAGAGAGGUUAUCCGCUCACCGAGAUCGGAAGAGCACACGU
B7: target 1 A1U,U10C (mixed)
RNA 1: CACCCGUGCAAAAAUGCAGGGGUCUAAAACUGAGCGGAUAACCUCUCUAUGG
RNA 2: GGGAAUGGAUCCACAUCUACGAAUUCGUACCAUAGAGAGGUCAUCCGCUCUCCGAGAUCGGAAGAGCACACGU
B8: target 1 insC 3' of 11,insU 3' of 2 (mixed)
RNA 1: CACCCGUGCAAAAAUGCAGGGGUCUAAAACUGAGCGGAUAACCUCUCUAUGG
RNA 2: GGGAAUGGAUCCACAUCUACGAAUUCGUACCAUAGAGAGGUCUAUCCGCUCUACCGAGAUCGGAAGAGCACACGU
B9: target 1 insG 3' of 22,insA 3' of 2 (mixed)
RNA 1: CACCCGUGCAAAAAUGCAGGGGUCUAAAACUGAGCGGAUAACCUCUCUAUGG
RNA 2: GGGAAUGGAUCCACAUCUACGAAUUCGUACGCAUAGAGAGGUUAUCCGCUCAACCGAGAUCGGAAGAGCACACGU
B10: target 1 insU 3' of 16,insU 3' of 16 (mixed)
RNA 1: CACCCGUGCAAAAAUGCAGGGGUCUAAAACUGAGCGGAUAACCUCUCUAUGG
RNA 2: GGGAAUGGAUCCACAUCUACGAAUUCGUACCAUAGAUUGAGGUUAUCCGCUCACCGAGAUCGGAAGAGCACACGU
B11: target 1 insG 3' of 11,insG 3' of 10 (mixed)
RNA 1: CACCCGUGCAAAAAUGCAGGGGUCUAAAACUGAGCGGAUAACCUCUCUAUGG
RNA 2: GGGAAUGGAUCCACAUCUACGAAUUCGUACCAUAGAGAGGUGUGAUCCGCUCACCGAGAUCGGAAGAGCACACGU
B12: target 1 insC 3' of 20,insG 3' of 8 (mixed)
RNA 1: CACCCGUGCAAAAAUGCAGGGGUCUAAAACUGAGCGGAUAACCUCUCUAUGG
RNA 2: GGGAAUGGAUCCACAUCUACGAAUUCGUACCACUAGAGAGGUUAUGCCGCUCACCGAGAUCGGAAGAGCACACGU
B13: target 1 insU 3' of 14,insG 3' of 6 (mixed)
RNA 1: CACCCGUGCAAAAAUGCAGGGGUCUAAAACUGAGCGGAUAACCUCUCUAUGG
RNA 2: GGGAAUGGAUCCACAUCUACGAAUUCGUACCAUAGAGAUGGUUAUCCGGCUCACCGAGAUCGGAAGAGCACACGU
B14: target 1 insG 3' of 19,insG 3' of 7 (mixed)
RNA 1: CACCCGUGCAAAAAUGCAGGGGUCUAAAACUGAGCGGAUAACCUCUCUAUGG
RNA 2: GGGAAUGGAUCCACAUCUACGAAUUCGUACCAUGAGAGAGGUUAUCGCGCUCACCGAGAUCGGAAGAGCACACGU
B15: target 1 insG 3' of 22,insC 3' of 1 (mixed)
RNA 1: CACCCGUGCAAAAAUGCAGGGGUCUAAAACUGAGCGGAUAACCUCUCUAUGG
RNA 2: GGGAAUGGAUCCACAUCUACGAAUUCGUACGCAUAGAGAGGUUAUCCGCUCACCCGAGAUCGGAAGAGCACACGU
B16: target 1 A1G,U10C (mixed)
RNA 1: CACCCGUGCAAAAAUGCAGGGGUCUAAAACUGAGCGGAUAACCUCUCUAUGG
RNA 2: GGGAAUGGAUCCACAUCUACGAAUUCGUACCAUAGAGAGGUCAUCCGCUCGCCGAGAUCGGAAGAGCACACGU
B17: target 1 U3G,A9G (mixed)
RNA 1: CACCCGUGCAAAAAUGCAGGGGUCUAAAACUGAGCGGAUAACCUCUCUAUGG
RNA 2: GGGAAUGGAUCCACAUCUACGAAUUCGUACCAUAGAGAGGUUGUCCGCGCACCGAGAUCGGAAGAGCACACGU
B18: target 1 U10C (mixed)
RNA 1: CACCCGUGCAAAAAUGCAGGGGUCUAAAACUGAGCGGAUAACCUCUCUAUGG
RNA 2: GGGAAUGGAUCCACAUCUACGAAUUCGUACCAUAGAGAGGUCAUCCGCUCACCGAGAUCGGAAGAGCACACGU
B19: target 1 del9 (mixed)
RNA 1: CACCCGUGCAAAAAUGCAGGGGUCUAAAACUGAGCGGAUAACCUCUCUAUGG
RNA 2: GGGAAUGGAUCCACAUCUACGAAUUCGUACCAUAGAGAGGUUUCCGCUCACCGAGAUCGGAAGAGCACACGU
B20: target 1 insA 3' of 21,insG 3' of 14 (mixed)
RNA 1: CACCCGUGCAAAAAUGCAGGGGUCUAAAACUGAGCGGAUAACCUCUCUAUGG
RNA 2: GGGAAUGGAUCCACAUCUACGAAUUCGUACCAAUAGAGAGGGUUAUCCGCUCACCGAGAUCGGAAGAGCACACGU
B21: target 1 insU 3' of 6,insG 3' of 4 (mixed)
RNA 1: CACCCGUGCAAAAAUGCAGGGGUCUAAAACUGAGCGGAUAACCUCUCUAUGG
RNA 2: GGGAAUGGAUCCACAUCUACGAAUUCGUACCAUAGAGAGGUUAUCCUGCGUCACCGAGAUCGGAAGAGCACACGU
B22: target 1 G5A,G17U (mixed)
RNA 1: CACCCGUGCAAAAAUGCAGGGGUCUAAAACUGAGCGGAUAACCUCUCUAUGG
RNA 2: GGGAAUGGAUCCACAUCUACGAAUUCGUACCAUAUAGAGGUUAUCCACUCACCGAGAUCGGAAGAGCACACGU
B23: target 1 U8C,U10A (mixed)
RNA 1: CACCCGUGCAAAAAUGCAGGGGUCUAAAACUGAGCGGAUAACCUCUCUAUGG
RNA 2: GGGAAUGGAUCCACAUCUACGAAUUCGUACCAUAGAGAGGUAACCCGCUCACCGAGAUCGGAAGAGCACACGU
B24: target 1 C4U,U8A (mixed)
RNA 1: CACCCGUGCAAAAAUGCAGGGGUCUAAAACUGAGCGGAUAACCUCUCUAUGG
RNA 2: GGGAAUGGAUCCACAUCUACGAAUUCGUACCAUAGAGAGGUUAACCGUUCACCGAGAUCGGAAGAGCACACGU
B25: target 1 U8C,G13U (mixed)
RNA 1: CACCCGUGCAAAAAUGCAGGGGUCUAAAACUGAGCGGAUAACCUCUCUAUGG
RNA 2: GGGAAUGGAUCCACAUCUACGAAUUCGUACCAUAGAGAUGUUACCCGCUCACCGAGAUCGGAAGAGCACACGU
B26: target 1 U3C,C7G (mixed)
RNA 1: CACCCGUGCAAAAAUGCAGGGGUCUAAAACUGAGCGGAUAACCUCUCUAUGG
RNA 2: GGGAAUGGAUCCACAUCUACGAAUUCGUACCAUAGAGAGGUUAUGCGCCCACCGAGAUCGGAAGAGCACACGU
B27: target 1 insU 3' of 9,insA 3' of 2 (mixed)
RNA 1: CACCCGUGCAAAAAUGCAGGGGUCUAAAACUGAGCGGAUAACCUCUCUAUGG
RNA 2: GGGAAUGGAUCCACAUCUACGAAUUCGUACCAUAGAGAGGUUAUUCCGCUCAACCGAGAUCGGAAGAGCACACGU

In this data set the target is T1, EsCas13d, nuclease-dead (Eubacterium siraeum, UniProt B0MS50, R295A;H300A;R849A;H854A).
T1 sequence: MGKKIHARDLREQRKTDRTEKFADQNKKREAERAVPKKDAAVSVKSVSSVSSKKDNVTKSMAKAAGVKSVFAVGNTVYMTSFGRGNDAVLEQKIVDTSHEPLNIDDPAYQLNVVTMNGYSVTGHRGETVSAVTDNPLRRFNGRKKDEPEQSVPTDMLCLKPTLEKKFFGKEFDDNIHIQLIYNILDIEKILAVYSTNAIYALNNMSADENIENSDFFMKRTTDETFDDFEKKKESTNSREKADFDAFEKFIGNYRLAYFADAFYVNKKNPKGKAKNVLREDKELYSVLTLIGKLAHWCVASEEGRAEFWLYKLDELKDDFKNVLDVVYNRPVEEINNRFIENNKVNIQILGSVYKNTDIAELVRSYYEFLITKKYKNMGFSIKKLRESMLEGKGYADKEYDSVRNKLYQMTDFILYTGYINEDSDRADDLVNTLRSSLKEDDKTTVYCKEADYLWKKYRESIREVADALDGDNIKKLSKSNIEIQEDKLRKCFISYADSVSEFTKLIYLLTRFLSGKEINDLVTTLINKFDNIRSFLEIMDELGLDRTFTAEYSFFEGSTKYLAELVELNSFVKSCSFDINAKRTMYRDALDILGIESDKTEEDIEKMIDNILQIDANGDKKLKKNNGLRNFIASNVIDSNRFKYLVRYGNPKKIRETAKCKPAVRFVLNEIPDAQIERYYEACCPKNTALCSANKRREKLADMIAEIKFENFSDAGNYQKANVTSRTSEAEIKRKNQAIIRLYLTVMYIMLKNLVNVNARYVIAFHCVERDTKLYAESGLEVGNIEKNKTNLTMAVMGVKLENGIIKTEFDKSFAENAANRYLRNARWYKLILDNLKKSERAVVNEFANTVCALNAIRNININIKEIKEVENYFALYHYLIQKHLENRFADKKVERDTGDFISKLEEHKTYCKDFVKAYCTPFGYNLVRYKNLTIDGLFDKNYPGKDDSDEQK
The experiment in a line: crRNA (strand 1, pre-loaded); Mg2+; 40 mM Tris-HCl pH 7.5, 150 mM NaCl, 6 mM MgCl2, 1 mM DTT, 0.1% Tween-20, 0.2 mg/ml BSA; 25 C; 10 min per concentration, then washed. Particulars: tags: His6-TwinStrep-SUMO cleaved; N-terminal SNAP kept (SNAP-Surface 488); label: 3' end held by stalled T7 RNA polymerase.
On to B1, for which binding was put at a Kd of 6.6 ± 0.5 nM. With B2 the figure was ~43 nM. B3: binding was put at a Kd of 22.2 ± 2.9 nM. For B4, binding was put at a Kd of 30.9 ± 3 nM. In turn, B5 came in with a Kd of 9.9 ± 0.7 nM. As to B6, the Kd came out at 16.7 ± 1 nM. With B7 the figure was 20 ± 1.7 nM; with B8, 73 ± 21 nM. In turn, B9 returned a Kd of 28.8 ± 2.3 nM. With B10 the figure was 38 ± 5 nM; with B11, 30 ± 4 nM.

B12 displayed a Kd of 8.6 ± 0.4 nM. The molecule B13 returned a Kd of 40 ± 6 nM. Molecule B14 came in with a Kd of 46 ± 4 nM. Consider B15, for which the Kd came out at 25.6 ± 1.6 nM. B16 displayed a dissociation constant (Kd) of 17.3 ± 0.9 nM. With B17 the figure was 8.3 ± 0.8 nM. Molecule B18 gave a dissociation constant (Kd) of 18 ± 1.1 nM. Turning to B19, the equilibrium dissociation constant (Kd) came out at 11.5 ± 0.6 nM. As to B20, binding was characterised by a dissociation constant (Kd) of 23.8 ± 2.3 nM. The molecule B21 yielded a Kd of 7.21 ± 0.28 nM. With B22, the dissociation constant (Kd) is ~100 nM. On to B23, for which binding was put at a Kd of 11 ± 0.5 nM.

As for B24, the affinity, expressed as Kd, was 19 ± 1.1 nM. B25 came in with an equilibrium dissociation constant (Kd) of 61 ± 11 nM.

Molecule B26 displayed a dissociation constant Kd of 8.47 ± 0.27 nM. As to B27, the Kd was 19.8 ± 1.9 nM.

A word on the Kd: it is a measure of binding affinity in units of concentration. Low values mean a tighter complex, high ones a looser complex.

The values are drawn from publication PMC10786891, “Massively parallel profiling of RNA-targeting CRISPR-Cas13d”.
